Results published in US20110311475A1 (published 2011).

T1: IL2 Receptor beta protein (Fc Chimera Active, Abcam plc) (human, UniProt P14784 27-240)
T1 construct: In the assay it was coupled to DyLight 649 conjugated Protein A; also called IL-2Rβ subunit; human Interleukin-2 receptor beta (CD122); Fc part of the bought chimera not given
T1 sequence (looked up): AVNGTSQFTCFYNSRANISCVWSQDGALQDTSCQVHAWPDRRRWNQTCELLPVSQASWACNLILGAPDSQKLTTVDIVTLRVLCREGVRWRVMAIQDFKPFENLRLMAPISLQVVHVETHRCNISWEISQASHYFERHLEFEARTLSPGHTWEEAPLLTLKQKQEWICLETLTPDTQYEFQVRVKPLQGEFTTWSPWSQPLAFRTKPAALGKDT

T2: Recombinant Human IL-4 Rα Fc Chimera protein (R&D Systems) (human, UniProt P24394 26-231)
T2 construct: In the assay it was coupled to DyLight 649 conjugated Protein A; also called IL-4Rα subunit; Fc part of the bought chimera not given
T2 sequence (looked up): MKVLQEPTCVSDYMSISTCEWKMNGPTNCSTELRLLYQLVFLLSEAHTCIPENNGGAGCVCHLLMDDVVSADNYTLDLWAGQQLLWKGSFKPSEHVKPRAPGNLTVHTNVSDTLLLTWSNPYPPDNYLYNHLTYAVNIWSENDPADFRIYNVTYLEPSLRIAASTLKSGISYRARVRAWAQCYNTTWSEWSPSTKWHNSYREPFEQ


Tests used:
[1] = target: T1, IL2 Receptor beta protein (Fc Chimera …); test: bead-based flow cytometric immunoassay, receptor-Fc chimera/Protein A-DyLight 649 (FIG. 19C)
Description: (§1) Both goat anti-human IL-21 and rabbit anti-human IL-21 antibodies were initially tested using a Western blot technique to confirm suitable detection of the IL-21 variant proteins with the predicted size. The success of antibody-to-bead conjugation was verified using PE Goat anti-Rabbit IgG Detector (BD Biosciences). To detect the receptor interaction of bead-captured IL-21 variants with the Interleukin-21 receptor proprietary subunit, the Interleukin-4 receptor alpha subunit, the Interleukin-2 receptor alpha or the Interleukin-2 receptor beta, appropriate receptor-Fc-chimera proteins were coupled with a Protein-A-fluorochrome complex suitable for flow cytometric evaluation. […] 50 μl of antibody-coated beads and serial dilutions of IL-21 variant proteins, with final concentrations ranging from 100 pg/ml to 1 μg/ml, were incubated together with the fluorescence conjugated receptor-chimera-Protein-A complexes in excess in 96-well plates for 3 h on a titer plate shaker. […] Bead particles were discriminated on the basis of size and fluorescence (see FIGS. 19A and B) on a BD FACSCanto II system with BD FACSDiva software (BD Biosciences). […]

[2] = target: T2, Recombinant Human IL-4 Rα Fc Chimera …; test: bead-based flow cytometric immunoassay, receptor-Fc chimera/Protein A-DyLight 649 (FIG. 19D)
Description: as §1

binding result [1] | binding result [2] | Binder
binds |  | IL-21/IL-2 hybrid protein (ligand, also called IL-21 variant) QGQDRHMIRMRQLIDIVDQLKNYVNDLVPEFLPAPEDVETNCEWSAFSCFQKAQLKSANTGNNERIINVSISNINVIVLELKGSETTFMCDSYEKKPPKEFLERFKSLLQKMIHQHLSSRTHGSEDS
 | binds | IL-21/IL-4 hybrid protein (ligand, also called IL-21/IL-4 hybrid variant; IL-21/IL-4 variant protein) QGQDRHMITLQEIIKTLNSLTEQKTLVPEFLPAPEDVETNCEWSAFSCFQKAQLKSAQQFHRHKQLIRFLKRLDRNLWGLAGLNSCPSCDSYEKKPPKEFLERFKSLLQKMIHQHLSSRTHGSEDS
